We go through two molecules from paper PMC4966588.

The assay deals with gp41 of HIV-1 NL4.3 viral particles (HIV-1 NL4.3).

On to “alpha-1-antitrypsin (from UniProt P01009 25-418) (natural protein)”, for which the cytosolic viral p24 (ELISA) in primary CD4+ T cells pretreated with AAT and infected with HIV-1 NL4.3 Gag-iGFP was more than 60 % decrease; the entry of HIV-1 NL4.3 Gag-iGFP into primary CD4+ T cells pretreated with AAT (0.5 g/L), GFP by flow cytometry, against untreated cells is more than 60 % decrease.
Regarding KGTEAAGAMFLEAIPMSIPPEVKFNKPFVFLMIDQNTKSP [synthesized C-terminus fragment of AAT], the cytosolic viral p24 (ELISA) in primary CD4+ T cells pretreated with C and infected with HIV-1 NL4.3 Gag-iGFP, against cells pretreated with AAT was more than 50 % decrease; the entry of HIV-1 NL4.3 Gag-iGFP into primary CD4+ T cells pretreated with C (0.05 g/L), GFP by flow cytometry, against cells pretreated with AAT is more than 50 % decrease.
